Measurements from patent US20150307561.

Experiments:
[1] = tested on: TALE tetramer library CTTC (repeats 1-4 varied) (synthetic (Xanthomonas TALE scaffold)); experiment: ELISA; details: mean of 132 library clones, SE 0.07
[2] = tested on: TALE tetramer library TCAT (repeats 1-4 varied) (synthetic (Xanthomonas TALE scaffold)); experiment: ELISA; details: mean of 44 library clones, SE 0.22
[3] = tested on: TALE tetramer library ATAC (repeats 5-8 varied) (synthetic (Xanthomonas TALE scaffold)); experiment: ELISA; details: mean of 43 library clones, SE 0.06
[4] = tested on: TALE tetramer library ATTG (repeats 5-8 varied) (synthetic (Xanthomonas TALE scaffold)); experiment: ELISA; details: mean of 131 library clones, SE 0.05
[5] = tested on: TALE tetramer library CAGA (repeats 5-8 varied) (synthetic (Xanthomonas TALE scaffold)); experiment: ELISA; details: mean of 146 library clones, SE 0.02
[6] = tested on: TALE tetramer library CAGC (repeats 5-8 varied) (synthetic (Xanthomonas TALE scaffold)); experiment: ELISA; details: mean of 137 library clones, SE 0.02
[7] = tested on: TALE tetramer library CCTG (repeats 5-8 varied) (synthetic (Xanthomonas TALE scaffold)); experiment: ELISA; details: mean of 90 library clones, SE 0.03
[8] = tested on: TALE tetramer library TACA (repeats 5-8 varied) (synthetic (Xanthomonas TALE scaffold)); experiment: ELISA; details: mean of 85 library clones, SE 0.06
[9] = tested on: TALEN R2+17 (synthetic (Xanthomonas TALE scaffold)); experiment: cell_activity; details: K562, partner L+17 or L*+17, cold shock

**Q.** With “CATAGTCCCCTCTTCATCCTCCTCGGTGTAGTTTTCACAGTCAGTCCACACGTC (double strand) [CTTC target]” as the sequence, how does the binding signal (fraction of canonical control) [1] read?
**A.** Its binding signal (fraction of canonical control) is 0.55.

**Q.** How did the binding signal (fraction of canonical control) [2] turn out when “CATAGTCCCCTTCATATCCTCCTCGGTGTAGTTTTCACAGTCAGTCCACACGTC (double strand) [TCAT target]” was run?
**A.** Its binding signal (fraction of canonical control) is 1.03.

**Q.** How did the binding signal (fraction of canonical control) [3] turn out when “CATAGTCCCCTTGACATACTCCTCGGTGTAGTTTTCACAGTCAGTCCACACGTC (double strand) [ATAC target]” was run?
**A.** The binding signal (fraction of canonical control) was 0.56.

**Q.** “CATAGTCCCCTTGACATTGTCCTCGGTGTAGTTTTCACAGTCAGTCCACACGTC (double strand) [ATTG target]” was tested. Which binding signal (fraction of canonical control) [4] did it give?
**A.** Its binding signal (fraction of canonical control) is 0.37.

**Q.** With “CATAGTCCCCTTGACCAGATCCTCGGTGTAGTTTTCACAGTCAGTCCACACGTC (double strand) [CAGA target]” as the sequence, how does the binding signal (fraction of canonical control) [5] read?
**A.** The binding signal (fraction of canonical control) was 0.18.

**Q.** For “CATAGTCCCCTTGACCAGCTCCTCGGTGTAGTTTTCACAGTCAGTCCACACGTC (double strand) [CAGC target]”, which binding signal (fraction of canonical control) [6] is on record?
**A.** Its binding signal (fraction of canonical control) is 0.03.

**Q.** “CATAGTCCCCTTGACCCTGTCCTCGGTGTAGTTTTCACAGTCAGTCCACACGTC (double strand) [CCTG target]” was tested. Which binding signal (fraction of canonical control) [7] did it give?
**A.** Its binding signal (fraction of canonical control) is 0.2.

**Q.** For “CATAGTCCCCTTGACTACATCCTCGGTGTAGTTTTCACAGTCAGTCCACACGTC (double strand) [TACA target]”, which binding signal (fraction of canonical control) [8] is on record?
**A.** Its binding signal (fraction of canonical control) is 0.5.

**Q.** With “CCATACAGTCAGTATCAAT (double strand) [CCR5 +17 target, right half]” as the sequence, how does the activity [9] read?
**A.** The activity was > 85 % indels.
